Source: article PMC7390872

Biological target: recombinant thioredoxin (rTRX) [thioredoxin: P0AA25]
Test: SPR; BIAcore T200; anti-His-tag antibody amine-coupled to a CM5 chip captures the His-tagged recombinant protein (0.1 mg/mL, about 200 RU); ligands (0.1 mg/mL) injected at 10 μL/min for 180 s; HBS-EP pH 7.5 (10 mM HEPES, 150 mM NaCl, 3 mM EDTA, 0.005% P20); relative reaction value, RUs >10 considered positive

Sequence of recombinant thioredoxin (rTRX) [thioredoxin: P0AA25] (P0AA25 whole entry): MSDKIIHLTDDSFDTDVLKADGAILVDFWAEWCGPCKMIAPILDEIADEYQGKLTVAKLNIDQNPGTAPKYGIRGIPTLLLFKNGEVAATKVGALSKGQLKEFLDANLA

Substance laminin protein has a response units (relative reaction value) of under 10 RUs.
